Tests used:
HeLa Kyoto [1] = test: thermal stability score vs G1/S (z-score of summed log2 fold changes over temperatures); higher = more thermally stable than in G1/S
HeLa Kyoto [2] = test: solubility in G1/S (NP-40 vs SDS abundance) (log2 ratio); higher = more soluble; details: cell cycle stage: G1/S
HeLa Kyoto [3] = test: melting temperature (median over replicates), in situ; higher = more thermally stable
HeLa Kyoto [4] = test: solubility change mitosis vs G1/S (difference of NP-40 vs SDS log2 ratios) (log2 ratio difference); higher = more soluble in mitosis
[5] = cell cycle stage: early G1 (4.5 h after nocodazole release)
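Throughout, for melting temperature (median over replicates), in situ: HeLa Kyoto cells synchronized by double thymidine or nocodazole block, proteins quantified by TMT10plex mass spectrometry, three independent biological replicates.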
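Throughout, for solubility change mitosis vs G1/S (difference of NP-40 vs SDS log2 ratios): synchronized HeLa Kyoto cells (double thymidine block for G1/S, nocodazole release for mitosis), protein amounts in NP-40 versus SDS lysates quantified by mass spectrometry, three biological replicates.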
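Throughout, for solubility in G1/S (NP-40 vs SDS abundance): HeLa Kyoto cells arrested at G1/S by double thymidine block, proteins quantified by TMT10plex mass spectrometry in mild NP-40 versus SDS extracts, three biological replicates.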
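Throughout, for thermal stability score vs G1/S (z-score of summed log2 fold changes over temperatures): synchronized HeLa Kyoto cells, proteins quantified by TMT10plex mass spectrometry, three biological replicates, mitosis taken 0.5 h after nocodazole release, G1/S directly after double thymidine block.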

Sequence of UTP20 (chain, as listed by the source): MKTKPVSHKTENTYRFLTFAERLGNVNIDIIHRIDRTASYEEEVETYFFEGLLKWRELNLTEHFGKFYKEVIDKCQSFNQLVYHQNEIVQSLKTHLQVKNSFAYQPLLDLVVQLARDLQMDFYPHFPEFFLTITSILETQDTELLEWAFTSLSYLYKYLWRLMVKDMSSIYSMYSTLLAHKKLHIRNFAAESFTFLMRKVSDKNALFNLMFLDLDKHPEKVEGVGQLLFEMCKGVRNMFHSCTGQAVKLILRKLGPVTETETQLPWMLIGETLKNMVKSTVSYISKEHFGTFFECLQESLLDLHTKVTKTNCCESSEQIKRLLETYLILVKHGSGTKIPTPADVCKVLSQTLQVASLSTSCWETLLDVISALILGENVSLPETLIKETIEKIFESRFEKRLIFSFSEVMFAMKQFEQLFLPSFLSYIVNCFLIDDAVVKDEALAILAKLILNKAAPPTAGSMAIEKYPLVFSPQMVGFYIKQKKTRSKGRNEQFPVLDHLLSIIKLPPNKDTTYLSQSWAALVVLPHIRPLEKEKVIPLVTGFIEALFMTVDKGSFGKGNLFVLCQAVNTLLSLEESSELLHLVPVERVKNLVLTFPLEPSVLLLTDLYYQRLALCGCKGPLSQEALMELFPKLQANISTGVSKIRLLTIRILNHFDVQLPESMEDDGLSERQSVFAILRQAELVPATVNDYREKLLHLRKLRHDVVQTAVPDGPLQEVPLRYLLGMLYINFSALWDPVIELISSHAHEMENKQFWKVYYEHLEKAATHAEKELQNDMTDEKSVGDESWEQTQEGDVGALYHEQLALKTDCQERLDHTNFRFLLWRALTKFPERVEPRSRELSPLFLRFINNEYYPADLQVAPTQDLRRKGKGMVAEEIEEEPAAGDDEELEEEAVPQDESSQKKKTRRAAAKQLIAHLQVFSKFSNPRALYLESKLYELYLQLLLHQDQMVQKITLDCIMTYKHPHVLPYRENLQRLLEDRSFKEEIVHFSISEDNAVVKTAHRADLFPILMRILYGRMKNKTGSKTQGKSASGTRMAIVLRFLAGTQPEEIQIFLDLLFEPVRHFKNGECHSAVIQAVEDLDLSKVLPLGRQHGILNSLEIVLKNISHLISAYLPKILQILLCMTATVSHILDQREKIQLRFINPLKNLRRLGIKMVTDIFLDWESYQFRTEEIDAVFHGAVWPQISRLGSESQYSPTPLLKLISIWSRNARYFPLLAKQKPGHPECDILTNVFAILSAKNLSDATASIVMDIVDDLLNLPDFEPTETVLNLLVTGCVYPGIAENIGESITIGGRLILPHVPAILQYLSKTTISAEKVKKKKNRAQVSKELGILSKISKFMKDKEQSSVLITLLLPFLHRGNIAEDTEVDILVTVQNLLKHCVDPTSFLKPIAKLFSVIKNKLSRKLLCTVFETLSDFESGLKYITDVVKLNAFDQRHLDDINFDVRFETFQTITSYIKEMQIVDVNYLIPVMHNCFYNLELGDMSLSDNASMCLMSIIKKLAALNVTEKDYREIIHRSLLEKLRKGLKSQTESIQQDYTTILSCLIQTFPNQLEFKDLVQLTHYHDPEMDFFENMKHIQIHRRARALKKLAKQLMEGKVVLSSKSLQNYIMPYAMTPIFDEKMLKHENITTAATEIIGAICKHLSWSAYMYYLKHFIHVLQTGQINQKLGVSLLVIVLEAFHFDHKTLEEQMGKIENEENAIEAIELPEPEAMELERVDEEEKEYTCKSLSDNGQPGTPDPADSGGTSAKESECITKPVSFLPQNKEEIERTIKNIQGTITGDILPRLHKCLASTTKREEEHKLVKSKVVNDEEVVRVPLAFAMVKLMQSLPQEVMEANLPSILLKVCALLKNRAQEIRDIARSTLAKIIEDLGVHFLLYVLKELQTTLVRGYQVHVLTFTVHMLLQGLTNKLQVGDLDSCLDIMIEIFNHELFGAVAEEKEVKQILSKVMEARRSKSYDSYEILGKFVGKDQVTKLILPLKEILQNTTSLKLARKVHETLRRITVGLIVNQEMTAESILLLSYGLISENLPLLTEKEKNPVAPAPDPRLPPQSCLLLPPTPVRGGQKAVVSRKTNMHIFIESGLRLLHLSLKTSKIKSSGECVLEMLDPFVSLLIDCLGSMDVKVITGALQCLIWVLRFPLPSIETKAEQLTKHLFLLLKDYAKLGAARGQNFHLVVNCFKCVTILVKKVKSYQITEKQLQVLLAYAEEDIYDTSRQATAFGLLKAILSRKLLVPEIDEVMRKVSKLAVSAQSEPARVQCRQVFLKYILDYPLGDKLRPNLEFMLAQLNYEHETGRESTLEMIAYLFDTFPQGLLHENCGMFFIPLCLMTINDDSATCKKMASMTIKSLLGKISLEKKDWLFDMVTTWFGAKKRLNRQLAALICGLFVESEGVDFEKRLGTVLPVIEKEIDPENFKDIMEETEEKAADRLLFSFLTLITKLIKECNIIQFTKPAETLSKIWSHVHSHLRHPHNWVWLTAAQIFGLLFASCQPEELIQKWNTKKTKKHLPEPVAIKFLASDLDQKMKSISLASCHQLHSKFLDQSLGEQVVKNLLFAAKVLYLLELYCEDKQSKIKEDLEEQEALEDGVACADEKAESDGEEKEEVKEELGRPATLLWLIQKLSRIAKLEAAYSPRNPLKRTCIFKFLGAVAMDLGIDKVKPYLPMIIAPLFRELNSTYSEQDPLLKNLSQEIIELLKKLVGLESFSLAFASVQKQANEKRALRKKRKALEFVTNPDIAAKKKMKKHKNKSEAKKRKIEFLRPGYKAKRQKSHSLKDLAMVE
Sequence of PNN (chain, as listed by the source): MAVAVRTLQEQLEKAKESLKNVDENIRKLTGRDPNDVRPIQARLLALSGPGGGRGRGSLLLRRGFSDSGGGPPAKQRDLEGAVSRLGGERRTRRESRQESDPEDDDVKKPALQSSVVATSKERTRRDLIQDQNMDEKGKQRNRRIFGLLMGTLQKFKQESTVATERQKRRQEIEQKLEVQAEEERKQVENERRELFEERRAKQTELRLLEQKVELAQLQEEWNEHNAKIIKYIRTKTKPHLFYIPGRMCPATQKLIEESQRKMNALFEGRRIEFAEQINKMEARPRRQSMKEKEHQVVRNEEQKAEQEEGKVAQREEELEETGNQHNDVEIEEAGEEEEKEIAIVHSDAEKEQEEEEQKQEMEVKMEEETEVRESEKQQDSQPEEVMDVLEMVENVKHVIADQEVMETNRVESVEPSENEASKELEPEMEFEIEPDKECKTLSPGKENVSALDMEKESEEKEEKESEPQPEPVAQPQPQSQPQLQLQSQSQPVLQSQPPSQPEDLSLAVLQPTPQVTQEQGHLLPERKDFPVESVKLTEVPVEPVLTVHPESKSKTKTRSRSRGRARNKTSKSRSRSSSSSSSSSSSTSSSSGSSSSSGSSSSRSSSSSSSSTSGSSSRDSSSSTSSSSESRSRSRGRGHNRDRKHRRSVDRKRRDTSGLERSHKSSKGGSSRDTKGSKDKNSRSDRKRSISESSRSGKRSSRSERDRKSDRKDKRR

## MDGFAGSLDDSISAASTSDVQDRLSALESRVQQQEDEITVLKAALADVLRRLAISEDHVASVKKSVSSKGQPSPRAVIPMSCITNGSGANRKPSHTSAVSIAGKETLSSAAKSGTEKKKEKPQGQREKKEESHSNDQSPQIRASPSPQPSSQPLQIHRQTPESKNATPTKSIKRPSPAEKSHNSWENSDDSRNKLSKIPSTPKLIPKVTKTADKHKDVIINQEGEYIKMFMRGRPITMFIPSDVDNYDDIRTELPPEKLKLEWAYGYRGKDCRANVYLLPTGKIVYFIASVVVLFNYEERTQRHYLGHTDCVKCLAIHPDKIRIATGQIAGVDKDGRPLQPHVRVWDSVTLSTLQIIGLGTFERGVGCLDFSKADSGVHLCIIDDSNEHMLTVWDWQKKAKGAEIKTTNEVVLAVEFHPTDANTIITCGKSHIFFWTWSGNSLTRKQGIFGKYEKPKFVQCLAFLGNGDVLTGDSGGVMLIWSKTTVEPTPGKGPKGVYQISKQIKAHDGSVFTLCQMRNGMLLTGGGKDRKIILWDHDLNPEREIEVPDQYGTIRAVAEGKADQFLVGTSRNFILRGTFNDGFQIEVQGHTDELWGLATHPFKDLLLTCAQDRQVCLWNSMEHRLEWTRLVDEPGHCADFHPSGTVVAIGTHSGRWFVLDAETRDLVSIHTDGNEQLSVMRYSIDGTFLAVGSHDNFIYLYVVSENGRKYSRYGRCTGHSSYITHLDWSPDNKYIMSNSGDYEILYWDIPNGCKLIRNRSDCKDIDWTTYTCVLGFQVFGVWPEGSDGTDINALVRSHNRKVIAVADDFCKVHLFQYPCSKAKAPSHKYSAHSSHVTNVSFTHNDSHLISTGGKDMSIIQWKLVEKLSLPQNETVADTTLTKAPVSSTESVIQSNTPTPPPSQPLNETAEEESRISSSPTLLENSLEQTVEPSEDHSEEESEEGSGDLGEPLYEEPCNEISKEQAKATLLEDQQDPSPSS [EML4]
HeLa Kyoto [1]; [5]
  thermal stability score: -1.11
HeLa Kyoto [1]; cell cycle stage: mitosis
  thermal stability score: -1.34
HeLa Kyoto [2]
  solubility in G1/S (log2): -0.0517
HeLa Kyoto [3]; cell cycle stage: G1/S
  melting temperature: 51 °C
HeLa Kyoto [3]; cell cycle stage: mitosis
  melting temperature: 50.3 °C
HeLa Kyoto [4]
  solubility change mitosis (log2): -0.0416

## MENTENSVDSKSIKNLEPKIIHGSESMDSGISLDNSYKMDYPEMGLCIIINNKNFHKSTGMTSRSGTDVDAANLRETFRNLKYEVRNKNDLTREEIVELMRDVSKEDHSKRSSFVCVLLSHGEEGIIFGTNGPVDLKKITNFFRGDRCRSLTGKPKLFIIQACRGTELDCGIETDSGVDDDMACHKIPVEADFLYAYSTAPGYYSWRNSKDGSWFIQSLCAMLKQYADKLEFMHILTRVNRKVATEFESFSFDATFHAKKQIPCIVSMLTKELYFYH [CASP3]
HeLa Kyoto [1]; [5]
  thermal stability score: 0.22
HeLa Kyoto [1]; cell cycle stage: mitosis
  thermal stability score: -0.0196
HeLa Kyoto [2]
  solubility in G1/S (log2): 0.135
HeLa Kyoto [3]; cell cycle stage: G1/S
  melting temperature: 55.7 °C
HeLa Kyoto [3]; cell cycle stage: mitosis
  melting temperature: 56.3 °C
HeLa Kyoto [4]
  solubility change mitosis (log2): 0.0123

## MTSRFGKTYSRKGGNGSSKFDEVFSNKRTTLSTKWGETTFMAKLGQKRPNFKPDIQEIPKKPKVEEESTGDPFGFDSDDESLPVSSKNLAQVKCSSYSESSEAAQLEEVTSVLEANSKISHVVVEDTVVSDKCFPLEDTLLGKEKSTNRIVEDDASISSCNKLITSDKVENFHEEHEKNSHHIHKNADDSTKKPNAETTVASEIKETNDTWNSQFGKRPESPSEISPIKGSVRTGLFEWDNDFEDIRSEDCILSLDSDPLLEMKDDDFKNRLENLNEAIEEDIVQSVLRPTNCRTYCRANKTKSSQGASNFDKLMDGTSQALAKANSESSKDGLNQAKKGGVSCGTSFRGTVGRTRDYTVLHPSCLSVCNVTIQDTMERSMDEFTASTPADLGEAGRLRKKADIATSKTTTRFRPSNTKSKKDVKLEFFGFEDHETGGDEGGSGSSNYKIKYFGFDDLSESEDDEDDDCQVERKTSKKRTKTAPSPSLQPPPESNDNSQDSQSGTNNAENLDFTEDLPGVPESVKKPINKQGDKSKENTRKIFSGPKRSPTKAVYNARHWNHPDSEELPGPPVVKPQSVTVRLSSKEPNQKDDGVFKAPAPPSKVIKTVTIPTQPYQDIVTALKCRREDKELYTVVQHVKHFNDVVEFGENQEFTDDIEYLLSGLKSTQPLNTRCLSVISLATKCAMPSFRMHLRAHGMVAMVFKTLDDSQHHQNLSLCTAALMYILSRDRLNMDLDRASLDLMIRLLELEQDASSAKLLNEKDMNKIKEKIRRLCETVHNKHLDLENITTGHLAMETLLSLTSKRAGDWFKEELRLLGGLDHIVDKVKECVDHLSRDEDEEKLVASLWGAERCLRVLESVTVHNPENQSYLIAYKDSQLIVSSAKALQHCEELIQQYNRAEDSICLADSKPLPHQNVTNHVGKAVEDCMRAIIGVLLNLTNDNEWGSTKTGEQDGLIGTALNCVLQVPKYLPQEQRFDIRVLGLGLLINLVEYSARNRHCLVNMETSCSFDSSICSGEGDDSLRIGGQVHAVQALVQLFLERERAAQLAESKTDELIKDAPTTQHDKSGEWQETSGEIQWVSTEKTDGTEEKHKKEEEDEELDLNKALQHAGKHMEDCIVASYTALLLGCLCQESPINVTTVREYLPEGDFSIMTEMLKKFLSFMNLTCAVGTTGQKSISRVIEYLEHC [WAPL]
HeLa Kyoto [1]; [5]
  thermal stability score: 0.873
HeLa Kyoto [1]; cell cycle stage: mitosis
  thermal stability score: 2.77
HeLa Kyoto [2]
  solubility in G1/S (log2): -0.00224
HeLa Kyoto [3]; cell cycle stage: G1/S
  melting temperature: 48.1 °C
HeLa Kyoto [3]; cell cycle stage: mitosis
  melting temperature: 49.9 °C
HeLa Kyoto [4]
  solubility change mitosis (log2): -0.133

## MEFDLGAALEPTSQKPGVGAGHGGDPKLSPHKVQGRSEAGAGPGPKQGHHSSSDSSSSSSDSDTDVKSHAAGSKQHESIPGKAKKPKVKKKEKGKKEKGKKKEAPH [IMUP]
HeLa Kyoto [1]; [5]
  thermal stability score: 1.02
HeLa Kyoto [1]; cell cycle stage: mitosis
  thermal stability score: -1.94
HeLa Kyoto [2]
  solubility in G1/S (log2): 1.09
HeLa Kyoto [3]; cell cycle stage: G1/S
  melting temperature: 59.3 °C
HeLa Kyoto [4]
  solubility change mitosis (log2): 0.311

## MADLANEEKPAIAPPVFVFQKDKGQKSPAEQKNLSDSGEEPRGEAEAPHHGTGHPESAGEHALEPPAPAGASASTPPPPAPEAQLPPFPRELAGRSAGGSSPEGGEDSDREDGNYCPPVKRERTSSLTQFPPSQSEERSSGFRLKPPTLIHGQAPSAGLPSQKPKEQQRSVLRPAVLQAPQPKALSQTVPSSGTNGVSLPADCTGAVPAASPDTAAWRSPSEAADEVCALEEKEPQKNESSNASEEEACEKKDPATQQAFVFGQNLRDRVKLINESVDEADMENAGHPSADTPTATNYFLQYISSSLENSTNSADASSNKFVFGQNMSERVLSPPKLNEVSSDANRENAAAESGSESSSQEATPEKESLAESAAAYTKATARKCLLEKVEVITGEEAESNVLQMQCKLFVFDKTSQSWVERGRGLLRLNDMASTDDGTLQSRLVMRTQGSLRLILNTKLWAQMQIDKASEKSIRITAMDTEDQGVKVFLISASSKDTGQLYAALHHRILALRSRVEQEQEAKMPAPEPGAAPSNEEDDSDDDDVLAPSGATAAGAGDEGDGQTTGST [RANBP3]
HeLa Kyoto [1]; [5]
  thermal stability score: 2.19
HeLa Kyoto [1]; cell cycle stage: mitosis
  thermal stability score: 1.81
HeLa Kyoto [2]
  solubility in G1/S (log2): 0.168
HeLa Kyoto [3]; cell cycle stage: G1/S
  melting temperature: 55.3 °C
HeLa Kyoto [3]; cell cycle stage: mitosis
  melting temperature: 56.9 °C
HeLa Kyoto [4]
  solubility change mitosis (log2): -0.0529

## MEKSNETNGYLDSAQAGPAAGPGAPGTAAGRARRCAGFLRRQALVLLTVSGVLAGAGLGAALRGLSLSRTQVTYLAFPGEMLLRMLRMIILPLVVCSLVSGAASLDASCLGRLGGIAVAYFGLTTLSASALAVALAFIIKPGSGAQTLQSSDLGLEDSGPPPVPKETVDSFLDLARNLFPSNLVVAAFRTYATDYKVVTQNSSSGNVTHEKIPIGTEIEGMNILGLVLFALVLGVALKKLGSEGEDLIRFFNSLNEATMVLVSWIMWYVPVGIMFLVGSKIVEMKDIIVLVTSLGKYIFASILGHVIHGGIVLPLIYFVFTRKNPFRFLLGLLAPFATAFATCSSSATLPSMMKCIEENNGVDKRISRFILPIGATVNMDGAAIFQCVAAVFIAQLNNVELNAGQIFTILVTATASSVGAAGVPAGGVLTIAIILEAIGLPTHDLPLILAVDWIVDRTTTVVNVEGDALGAGILHHLNQKATKKGEQELAEVKVEAIPNCKSEEETSPLVTHQNPAGPVASAPELESKESVL [SLC1A4]
HeLa Kyoto [1]; [5]
  thermal stability score: -1.93
HeLa Kyoto [1]; cell cycle stage: mitosis
  thermal stability score: -4.67
HeLa Kyoto [2]
  solubility in G1/S (log2): -0.527
HeLa Kyoto [3]; cell cycle stage: G1/S
  melting temperature: 58.9 °C
HeLa Kyoto [3]; cell cycle stage: mitosis
  melting temperature: 62.8 °C
HeLa Kyoto [4]
  solubility change mitosis (log2): 0.0714

## PNN
HeLa Kyoto [1]; [5]
  thermal stability score: 0.124
HeLa Kyoto [1]; cell cycle stage: mitosis
  thermal stability score: 3.19
HeLa Kyoto [2]
  solubility in G1/S (log2): -1.25
HeLa Kyoto [3]; cell cycle stage: G1/S
  melting temperature: 48.6 °C
HeLa Kyoto [3]; cell cycle stage: mitosis
  melting temperature: 50 °C
HeLa Kyoto [4]
  solubility change mitosis (log2): 0.808

## UTP20
HeLa Kyoto [1]; [5]
  thermal stability score: 1.17
HeLa Kyoto [1]; cell cycle stage: mitosis
  thermal stability score: 5.97
HeLa Kyoto [2]
  solubility in G1/S (log2): -1.01
HeLa Kyoto [3]; cell cycle stage: G1/S
  melting temperature: 47.3 °C
HeLa Kyoto [3]; cell cycle stage: mitosis
  melting temperature: 50.7 °C
HeLa Kyoto [4]
  solubility change mitosis (log2): 0.363

Source: the supplement of paper PMC5998384
